Assay results: the nanobody polyreactivity screen of Harvey et al. (2022)

Experiment: yeast display, Sf9 membrane polyspecificity reagent, FACS + sequencing; frameworks hold sequencing errors
In short: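 In a synthetic yeast display library (Saccharomyces cerevisiae BJ5465), nanobody expression was induced with galactose for 36–48 hours. FACS gates were set low and high (top ~1%) using anti-HA fluorescence for expression and streptavidin fluorescence for binding of the Sf9 membrane reagent. Each polyreactivity label is drawn from the gate of origin.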

Sequence: QVQLVESGGGLVQAGGSLRLSCAASGFTFKFNAMGWYRQAPGKERELVAAISYSGGSTYYADSVKGRFTISRDIAKNTVYVQMNSLKPEDTAVYYCAARAYWYGASYYYWGQGTQVTVSS
- polyreactivity (PSR sort gate): high polyreactivity

Sequence: QVQLVESGGGLVQAGGSLRLSCAASGFTFKFNTMGWYRQAPGKERELVAAISWRGGDTSYADSVKGRFTISRDNAKNTVYLQMNSLKPEDTAVYYCAASPRYPYWYDYWGQGTQVTVSS
- polyreactivity (PSR sort gate): low polyreactivity

Sequence: QVQLVESGGGLVQAGGSLRLSCAASGFTFKGNAMGWYRQAPGKERELVAGISRSGRTYYADSVKGRFTISRDNAKNTVYLQMNSLKPEDTAVYYCNARNQGWASLPTMGYWGQGTQVTVSS
- polyreactivity (PSR sort gate): high polyreactivity

Sequence: QVQLVESGGGLVQAGGSLRLSCAASGFTFKGNAMGWYRQAPGKERELVATITQSAGSTYYADSVKGRFTISRDNAKNTVYLQMNSLKPEDTAVYYCAAYLSETRPYLYDYWGQGTQVTVSS
- polyreactivity (PSR sort gate): low polyreactivity

Sequence: QVQLVESGGGLVQAGGSLRLSCAASGFTFKKYAMGWSRQAPGKERELVASITWSGGSTSYADSVKGRFTISRDNAKNSVYLQMNSLKPEDTAVFYCAAATFVYRLGYNRFDYWGQGTQVTVSS
- polyreactivity (PSR sort gate): high polyreactivity

Sequence: QVQLVESGGGLVQAGGSLRLSCAASGFTFKLNAMGWYRQAPGKERELVAAISWGGGTTYYADSVKGRFTISRDNAKNTVYLQMNSLKPEDTAVYYCAADGTGTYDYWGQGTQVTVSS
- polyreactivity (PSR sort gate): low polyreactivity

Sequence: QVQLVESGGGLVQAGGSLRLSCAASGFTFKLYAMGWYRQAPGKERELVAAISSSGGRTYYADSVKGRFTISRDNAKNTVYLQMNSLKPEDTAVYYCNAVRTVNDYHYDYWGQGTQVTVSS
- polyreactivity (PSR sort gate): high polyreactivity

Sequence: QVQLVESGGGLVQAGGSLRLSCAASGFTFKLYAMGWYRQSPGKVRELVAAISSSGGRTYYADSVKGRFTISRDNAKYTVYLQMNSLKPEDTAVYYCNAVRTVNDYHYDYWGQGSQVTVSS
- polyreactivity (PSR sort gate): high polyreactivity

Sequence: QVQLVESGGGLVQAGGSLRLSCAASGFTFKRNAMGWYRQAPGKERELVASITSRGGSTDYADSVKGRFTISRDNAKNTVYLQMNSLKPEDTAVYYCAAVKYVVYYRSDYWGQGTQVTVSS
- polyreactivity (PSR sort gate): high polyreactivity

Sequence: QVQLVESGGGLVQAGGSLRLSCAASGFTFKRYAMGWFRQAPGKERELVSTITSRGGSTYYADSVKGRFTISRDNAKNTVYLQMNSLKPEDTAVYYCVRRYPGLPGWSSYGSYESGYWGQGSQVTVSS
- polyreactivity (PSR sort gate): high polyreactivity

Sequence: QVQLVESGGGLVQAGGSLRLSCAASGFTFKYNAMGWYRQAPGKERELVAAISSSGSTNYADSVKGRFTISRDNAKNTVYLQMNSLKPEDTAVYYCAARWRSVLAAGTRPVSFDYWGQGTQVTVSS
- polyreactivity (PSR sort gate): low polyreactivity

Sequence: QVQLVESGGGLVQAGGSLRLSCAASGFTFKYNAMGWYRQAPGKERELVAAITASGGSTRYADSVKARFTISRDNAKNTVYLQMNSLKPEDTAVNYCAARKWFPRYSASPRSHGPYDYWGLGTQVTVSS
- polyreactivity (PSR sort gate): high polyreactivity

Sequence: QVQLVESGGGLVQAGGSLRLSCAASGFTFKYNAMGWYRQAPGKERELVASISSGSTNYADSVKGRFTISRDNAKNTVYLQMNSLKPEDTAVYYCAASVSRGKRFRYGYVFKLDYWGQGTQVTVSS
- polyreactivity (PSR sort gate): low polyreactivity

Sequence: QVQLVESGGGLVQAGGSLRLSCAASGFTFKYYAMGWYRQAPGKERELVAAISSRGGSTYYADSVKGRFTISRDKAKNTVYLQMNSLKPEDTAVYYCAAYYRTGSIWYAIFSDDYWGQGTQVTVSS
- polyreactivity (PSR sort gate): high polyreactivity

Sequence: QVQLVESGGGLVQAGGSLRLSCAASGFTFKYYAMGWYRQAPGKERELVAAITKRGGSTYYADSVKGRFTISRDNAKNTVYLQMNSLKPEDTEVYYCAAYYKSTYVPGDYWGQGTQVTVSS
- polyreactivity (PSR sort gate): high polyreactivity

Sequence: QVQLVESGGGLVQAGGSLRLSCAASGFTFKYYAMGWYRQAPGKERELVARISWSGGSTYYADSVKGRFTISRDNAKNTFFLQMNSLKPEDTAVYYCNTDFGYGFDYWGQGTQVSVSS
- polyreactivity (PSR sort gate): high polyreactivity

Sequence: QVQLVESGGGLVQAGGSLRLSCAASGFTFKYYAMGWYRQAPGKERELVATITSGGRTNYADSVKGRFTISRDNAKNTVYLQMNSLKPEDTAVYYCATPYSAYWQNERDYWGQGTQVTVSS
- polyreactivity (PSR sort gate): high polyreactivity

Sequence: QVQLVESGGGLVQAGGSLRLSCAASGFTFKYYDMGWYRQAPGKERELVAAIDTSGGNTYYADSVKGRFTISRDYAKNTVYLQMNSLKPEDTAVYYCAATVPYYHDDYWGQGTQVTVSS
- polyreactivity (PSR sort gate): low polyreactivity

Sequence: QVQLVESGGGLVQAGGSLRLSCAASGFTFKYYVMGWYRQAPGKERELVASISKRGGSTRYADSVKGRFTISLDNAKNTVYLQMNSLKPEDTAVYYCAAEYWYYWEYEYWGQGTQVTVSS
- polyreactivity (PSR sort gate): high polyreactivity

Sequence: QVQLVESGGGLVQAGGSLRLSCAASGFTFLAYPMGRYRQAPGKERELVAAISKSGGSTYYADSVKGRFTISRDNAKITVYLQMNSLKPDDTAVYYSNAGRRIKFYGSYDYWGQGSQVTVSS
- polyreactivity (PSR sort gate): high polyreactivity

Sequence: QVQLVESGGGLVQAGGSLRLSCAASGFTFLDYALGWYIQAPGKERELVASISSSGGSTRYADSVKGRFTISRDNAKNTVYLQMNSLKPEDTAVYYCNAQIAEVPNDYWGQGPQVTVSS
- polyreactivity (PSR sort gate): low polyreactivity

Sequence: QVQLVESGGGLVQAGGSLRLSCAASGFTFLIYAMGWYRQAPGKERELVAAITWRGSGTYYADSVKGRFTLSRDNAKNTVYLQMNSLKPEDTAVYYCAARTARRTFDYWGQGTQVTVSS
- polyreactivity (PSR sort gate): low polyreactivity

Sequence: QVQLVESGGGLVQAGGSLRLSCAASGFTFLPAYAMGWYRQAPGKERELVAAITRGGSTYYADSVKGRFTISRDNAKNTVYLQMNSLKPEDTAVYYCNADQKFGFYRSVGDDYWGQGTQVTVSS
- polyreactivity (PSR sort gate): low polyreactivity

Sequence: QVQLVESGGGLVQAGGSLRLSCAASGFTFLRNAMGWYRQAPGKERELVATISTSGGSTYYADSVKGRFTISRDNAKITVYLQMNSLKPEDTAVYYCAKRYRTRDSGYDYWGQGTQVTVSS
- polyreactivity (PSR sort gate): high polyreactivity

Sequence: QVQLVESGGGLVQAGGSLRLSCAASGFTFLRYAMGWYRQAPGKESELVAAISTSGGSTSYADSVKGRFTISRDNAKNTVYLQMNSLKPEDTAVYYCNAVLYKVSISEYDYWGQGTQVTVSS
- polyreactivity (PSR sort gate): high polyreactivity

Sequence: QVQLVESGGGLVQAGGSLRLSCAASGFTFLSYTMGWYRQEPGKERELVASITASGTRTYYADSVKGRFTISRDNAKNTVYLQMNSLKPDDTAVYYCAARRSGSGSHDYGYWGQGTQVTVSS
- polyreactivity (PSR sort gate): low polyreactivity

Sequence: QVQLVESGGGLVQAGGSLRLSCAASGFTFNAMGWYRQAPGKERELVARIDSDDTTNYADSVKGRFTISRDNAKNTVYLQMNSLKPEDTAVYYCNKDYAWLSYQHYDYWGQGTQVTVSS
- polyreactivity (PSR sort gate): low polyreactivity

Sequence: QVQLVESGGGLVQAGGSLRLSCAASGFTFNDYAMGWYRQAPGKERELVAAIDWSGGRTYYADSVKGRFTISRDNAKNTVYVQMNSLKPEDTAVYYCAAVLYSRLYWYRLDYWGQGTQVTVSS
- polyreactivity (PSR sort gate): low polyreactivity

Sequence: QVQLVESGGGLVQAGGSLRLSCAASGFTFNEYAMGWYRQAPGKERELVAAITWGGASTYYADSVKGRFTISRDNAKNTVYLQMNSLKPEDTAVYYCVFVYVYDYYYWGQGTQVTVSS
- polyreactivity (PSR sort gate): high polyreactivity

Sequence: QVQLVESGGGLVQAGGSLRLSCAASGFTFNFNAMGCYIQAPGKERELLAAIRYRGGSTNYADSVKGSFTISRDNAKNTVYVMMNSLKPEDTAVYYCNVYYYRTYSHVLPGYEYWGQGTQVPVSS
- polyreactivity (PSR sort gate): high polyreactivity

Sequence: QVQLVESGGGLVQAGGSLRLSCAASGFTFNNYAMGWYRQAPGKERELVAAISSGAGTYYADSVKGRFTISRDNAKNTVYLQMNSLKPEDTAVYYCNASLKYQGRTRITYRDDYWGQGTQVTVSS
- polyreactivity (PSR sort gate): low polyreactivity

Sequence: QVQLVESGGGLVQAGGSLRLSCAASGFTFNPYAMGWYRQAPGKERELVAAITSGGSTNYADSVKGRFTISRDNAKNTVYLQMNSLKPEDTAVYYCAADSRGYGDDSWGQGTKVTVSS
- polyreactivity (PSR sort gate): low polyreactivity

Sequence: QVQLVESGGGLVQAGGSLRLSCAASGFTFNQYAMGWYRQAPGKERELVAAITGSGGSTYYADSVKGRFTISRDNAKNTVYLQMNSLKPEDTAVYYCNRDRFSRFYWGQGTQVTVSS
- polyreactivity (PSR sort gate): high polyreactivity

Sequence: QVQLVESGGGLVQAGGSLRLSCAASGFTFNRYAMGWYRQAPGKERELVAAISARGGITYYADSVKGRFTISRDNAKNTVYLQMNSLKPEDTAVYYCNKRYSSWSGEHDYWGQGTQVTVSS
- polyreactivity (PSR sort gate): high polyreactivity

Sequence: QVQLVESGGGLVQAGGSLRLSCAASGFTFNRYTMGWYRQAPGKERELVASISVRGSRTYYADSVKGRFTISRDNAKNTVYLQMNSLKPEDTAVYYCNAKTYVFYRLRSYYYWGQGTQVTVSS
- polyreactivity (PSR sort gate): high polyreactivity

Sequence: QVQLVESGGGLVQAGGSLRLSCAASGFTFNVNAMGWYRQAPGKERELVATITWSDGSTRYADSVKGRFTISRDNAKNTVYLQMNSLKPEDTAVYYCAAESSECTSGDYDYWGQCTQVTVSS
- polyreactivity (PSR sort gate): low polyreactivity

Sequence: QVQLVESGGGLVQAGGSLRLSCAASGFTFNYYAMGGYRPAPGKERELVAAISTGGSTYYADSVKGRFTFSRDNAKNTVYLQMISLKPEDTAVYYCNAKPRYRKADRLDYWGQGTQVTVSS
- polyreactivity (PSR sort gate): high polyreactivity

Sequence: QVQLVESGGGLVQAGGSLRLSCAASGFTFPDYAMGWYRQAPGKEREMVAAISSDGSTYYADSVKGRFTISRDNAKNTVYLQMNSLKPEDTAVYYCAAYVVWLYGYDYWGQGTLVTVSS
- polyreactivity (PSR sort gate): low polyreactivity

Sequence: QVQLVESGGGLVQAGGSLRLSCAASGFTFPENAMGWYRQAPGKERELVAAISYRGASTFYADSVKGRFTISRDNAKNTVYLQMNSLKPEDTAVYYCATDPRIRYQGNPYDYWGQGTKVTVSS
- polyreactivity (PSR sort gate): high polyreactivity

Sequence: QVQLVESGGGLVQAGGSLRLSCAASGFTFPFYAMGWYRQAPGKERELVAPISRSGTRTYYADSVKGRFTISRDNAKNTVYLQMNSLKPEDTAVYYCAAAYHNGYLSEGYWEHYYWGQGTQVTVSS
- polyreactivity (PSR sort gate): high polyreactivity

Sequence: QVQLVESGGGLVQAGGSLRLSCAASGFTFPGNTMGWYRQAPGKERELVAVISRSGGRSYYADSVKGRFTISRDNAKNTVYLQMNSLKPEDTAVYYCAADTSVRFDYWGQGTQVTVSS
- polyreactivity (PSR sort gate): high polyreactivity

Sequence: QVQLVESGGGLVQAGGSLRLSCAASGFTFPHYAMGWYRQAPGKERELVARIRWGGGSTYYADSVKGRFTISRDNAKNTVYLQMNSLKPEDTAVYYCARTTSYLTSTRRYYYWGQGTQVTVSS
- polyreactivity (PSR sort gate): high polyreactivity

Sequence: QVQLVESGGGLVQAGGSLRLSCAASGFTFPIYAMGLSRQAPGKERELVAAITTPGGRTYYADSVKGRFTISRDNAKNPVYLQLNSLKPEDTAVYYCNAQGYAYRLWFGYWGQGTQVTVSS
- polyreactivity (PSR sort gate): high polyreactivity
